± gives the uncertainty stated by the source.
Assay: self-splicing fitness, log relative to wild type (ln ratio); higher = more splicing; Tetrahymena group I intron in knt gene, E. coli kanamycin selection, DiMSum; sequences stand for … in CUCUCU…GGAGGGAAAAGUUAUCAGGCAUGCACCUGGUAGCUAGUCUUUAAACCAAUAGAUUGCAUCGGUUUAAAAGGCAAGACCGUCAAAUUGCGGGAAAGGGGUCAACAGCCGUUCAGUACCAAGUCUCAGGGGAAACUUUGAGAUGGCCUUGCAAAGGGUAUGGUAAUAAGCUGACGGACAUGGUCCUAACCACGCAGCCAAGUCCUAAGUCAACAGAUCUUCUGUUGAUAUGGAUGCAGUUCACAGACUAAAUGUCGGUCGGGGAAGAUGUAUUCUUCUCAUAAGAUAUAGUCGGACCUCUCCUUAAUGGGAGCUAGCGGAUGAAGUGAUGCAACACUGGAGCCGCUGGGAACUAAUUUGUAUGCGAAAGUAUAUUGAUUAGUUUUGGAGUACUCGUGGUCG
Procedure, shortened: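 DiMSum derived fitness as the error-weighted combination of fold changes across replicates, kanamycin versus no kanamycin, normalised to wild type. E. coli BL21(DE3) held the library, which randomised all eight P1ex-region intron nucleotides within the knt kanamycin-resistance gene on pET-22b(+). Six replicate transformations grew overnight at 37°C or 30°C on LB agar with or without 25 μg/mL kanamycin, also containing 100 μg/mL carbenicillin, 50 μM IPTG and 0.2% rhamnose, and pooled colonies were amplicon-sequenced on an Illumina HiSeq 2500.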

Row | Sequence | self-splicing fitness (ln) (30 °C) | self-splicing fitness (ln) (37 °C)
1 | CGUGAGCAAUAUUACGGCUA | -1.68 ± 0.14 | -1.12 ± 0.14
2 | AAGUAGCAAUAUUACGCGUG | -0.856 ± 0.067 | -0.191 ± 0.092
3 | AAAUAGCAAUAUUACGCAUC | -3.65 ± 0.47 | -0.111 ± 0.22
4 | GGGAAGCAAUAUUACGCCGG | -3.75 ± 0.29 | 
5 | CUUUAGCAAUAUUACGUGAU | -2.8 ± 0.14 | -1.05 ± 0.15
6 | CUACAGCAAUAUUACGAAAU | -3.72 ± 0.16 | -2.82 ± 0.17
7 | GCAUAGCAAUAUUACGAGGG | -3.43 ± 0.23 | -1.69 ± 0.17
8 | CUGAAGCAAUAUUACGCUUG | -2.33 ± 0.13 | -1.79 ± 0.14
9 | GCCCAGCAAUAUUACGAGAG | -2.63 ± 0.096 | -1.42 ± 0.1
10 | CGACAGCAAUAUUACGUGCA | -1.57 ± 0.057 | -0.14 ± 0.07
11 | AAUAAGCAAUAUUACGAGAA | -3.24 ± 0.38 | -1.55 ± 0.27
12 | CGCAAGCAAUAUUACGCGGC | -3.05 ± 0.28 | -2.81 ± 0.38
13 | CGCAAGCAAUAUUACGUUAG | -1.15 ± 0.073 | -1.42 ± 0.1
14 | UUGGAGCAAUAUUACGACGC |  | -2.47 ± 0.33
15 | CGGUAGCAAUAUUACGAGAA | -2.77 ± 0.32 | -1.85 ± 0.33
16 | CAAAAGCAAUAUUACGCACU | -1.57 ± 0.091 | -0.654 ± 0.089
17 | CUCUAGCAAUAUUACGCUAA | -2.65 ± 0.35 | -2.26 ± 0.4
18 | AGACAGCAAUAUUACGCACA | -0.582 ± 0.079 | -0.0964 ± 0.099
19 | UUUGAGCAAUAUUACGUACC | -2.34 ± 0.44 | -2.3 ± 0.42
20 | CCAGAGCAAUAUUACGUACA |  | -2.77 ± 0.29
21 | CCGGAGCAAUAUUACGUCUC | -3.22 ± 0.31 | -2.69 ± 0.39
22 | GAGGAGCAAUAUUACGCCUC |  | -2.29 ± 0.42
23 | AGAGAGCAAUAUUACGUUCA | -2.39 ± 0.22 | -1.81 ± 0.22
24 | CGCUAGCAAUAUUACGUCCC | -2.63 ± 0.16 | -1.54 ± 0.19
25 | ACAAAGCAAUAUUACGCUUU | -3.64 ± 0.24 | -2.16 ± 0.17

Row | Sequence | self-splicing fitness (ln) (30 °C) | self-splicing fitness (ln) (37 °C)
26 | UAUCAGCAAUAUUACGAACU | -1.2 ± 0.14 | 0.231 ± 0.13
27 | GAUAAGCAAUAUUACGGACA | -1.39 ± 0.09 | -0.559 ± 0.088
28 | GCUCAGCAAUAUUACGCGCA | -1.77 ± 0.13 | -0.106 ± 0.13
29 | ACACAGCAAUAUUACGGUGG | -2.44 ± 0.08 | -1.67 ± 0.099
30 | GUUCAGCAAUAUUACGUCUC | -0.362 ± 0.065 | 0.216 ± 0.083
31 | CACGAGCAAUAUUACGGGAC | -3.36 ± 0.2 | -2.55 ± 0.23
32 | UAUUAGCAAUAUUACGUGUA | -1.21 ± 0.16 | -0.828 ± 0.16
33 | GAAGAGCAAUAUUACGUUAU | -3.85 ± 0.25 | -1.47 ± 0.2
34 | UAUCAGCAAUAUUACGCGCG | 0.181 ± 0.08 | -0.0803 ± 0.1
35 | GAUUAGCAAUAUUACGGUUU | -0.946 ± 0.083 | 0.231 ± 0.11
36 | ACGAAGCAAUAUUACGGGUA | -1.72 ± 0.25 | -2.08 ± 0.17
37 | CGCAAGCAAUAUUACGUGAA | -2.5 ± 0.11 | -1.08 ± 0.11
38 | AUUGAGCAAUAUUACGGUAU | -2.06 ± 0.13 | -1.59 ± 0.18
39 | CGCCAGCAAUAUUACGGAAU | -2.95 ± 0.2 | -2.05 ± 0.21
40 | CGCAAGCAAUAUUACGGAUG | -1.2 ± 0.062 | -0.889 ± 0.073
41 | CGAUAGCAAUAUUACGUCUC | -2.61 ± 0.19 | -2.55 ± 0.32
42 | AGCUAGCAAUAUUACGGGUC | -2.59 ± 0.17 | -1.7 ± 0.15
43 | AGUGAGCAAUAUUACGUUCG | -3.26 ± 0.16 | -2.22 ± 0.14
44 | CUCAAGCAAUAUUACGAUUG | -3.85 ± 0.18 | -2.5 ± 0.17
45 | CCACAGCAAUAUUACGUUUA | -3.53 ± 0.15 | -2.47 ± 0.16
46 | AAGGAGCAAUAUUACGUACC | -3.01 ± 0.33 | -3.19 ± 0.41
47 | GCAAAGCAAUAUUACGAUCC | -0.0105 ± 0.12 | -0.518 ± 0.13
48 | UCUAAGCAAUAUUACGCGCU | -4.34 ± 0.46 | -1.6 ± 0.27
49 | CGACAGCAAUAUUACGGAAA | -1.98 ± 0.21 | -2.2 ± 0.18

Source: the supplement of paper PMC7877785
